Key:
[1] = target: T1, cynomolgus monkey C5 (cynomolgus monkey); assay: ELISA, recombinant C5 coated at 3 µg/ml, serially diluted antibody, HRP anti-IgG4 Fc detection
T1 construct: also called cyno C5; cyno monkey C5
Experimental: (§1) ELISA wells were coated with recombinant C5 protein of relevant species (3 μg/ml in coating buffer, 100 μl/well, 4° C. overnight). […] Sheep RBC lysis assay was performed as described in Example 3, using 5-20% cynomolgus monkey serum.

[2] = target: T2, mouse C5 (mouse, UniProt P06684 19-1680, limits assumed); assay: ELISA, wells coated with recombinant C5 (3 ug/ml), serially diluted antibody, detection with HRP anti-IgG4 Fc, OD450
T2 construct: also called recombinant mouse C5 protein
T2 sequence (P06684 19-1680 limits assumed): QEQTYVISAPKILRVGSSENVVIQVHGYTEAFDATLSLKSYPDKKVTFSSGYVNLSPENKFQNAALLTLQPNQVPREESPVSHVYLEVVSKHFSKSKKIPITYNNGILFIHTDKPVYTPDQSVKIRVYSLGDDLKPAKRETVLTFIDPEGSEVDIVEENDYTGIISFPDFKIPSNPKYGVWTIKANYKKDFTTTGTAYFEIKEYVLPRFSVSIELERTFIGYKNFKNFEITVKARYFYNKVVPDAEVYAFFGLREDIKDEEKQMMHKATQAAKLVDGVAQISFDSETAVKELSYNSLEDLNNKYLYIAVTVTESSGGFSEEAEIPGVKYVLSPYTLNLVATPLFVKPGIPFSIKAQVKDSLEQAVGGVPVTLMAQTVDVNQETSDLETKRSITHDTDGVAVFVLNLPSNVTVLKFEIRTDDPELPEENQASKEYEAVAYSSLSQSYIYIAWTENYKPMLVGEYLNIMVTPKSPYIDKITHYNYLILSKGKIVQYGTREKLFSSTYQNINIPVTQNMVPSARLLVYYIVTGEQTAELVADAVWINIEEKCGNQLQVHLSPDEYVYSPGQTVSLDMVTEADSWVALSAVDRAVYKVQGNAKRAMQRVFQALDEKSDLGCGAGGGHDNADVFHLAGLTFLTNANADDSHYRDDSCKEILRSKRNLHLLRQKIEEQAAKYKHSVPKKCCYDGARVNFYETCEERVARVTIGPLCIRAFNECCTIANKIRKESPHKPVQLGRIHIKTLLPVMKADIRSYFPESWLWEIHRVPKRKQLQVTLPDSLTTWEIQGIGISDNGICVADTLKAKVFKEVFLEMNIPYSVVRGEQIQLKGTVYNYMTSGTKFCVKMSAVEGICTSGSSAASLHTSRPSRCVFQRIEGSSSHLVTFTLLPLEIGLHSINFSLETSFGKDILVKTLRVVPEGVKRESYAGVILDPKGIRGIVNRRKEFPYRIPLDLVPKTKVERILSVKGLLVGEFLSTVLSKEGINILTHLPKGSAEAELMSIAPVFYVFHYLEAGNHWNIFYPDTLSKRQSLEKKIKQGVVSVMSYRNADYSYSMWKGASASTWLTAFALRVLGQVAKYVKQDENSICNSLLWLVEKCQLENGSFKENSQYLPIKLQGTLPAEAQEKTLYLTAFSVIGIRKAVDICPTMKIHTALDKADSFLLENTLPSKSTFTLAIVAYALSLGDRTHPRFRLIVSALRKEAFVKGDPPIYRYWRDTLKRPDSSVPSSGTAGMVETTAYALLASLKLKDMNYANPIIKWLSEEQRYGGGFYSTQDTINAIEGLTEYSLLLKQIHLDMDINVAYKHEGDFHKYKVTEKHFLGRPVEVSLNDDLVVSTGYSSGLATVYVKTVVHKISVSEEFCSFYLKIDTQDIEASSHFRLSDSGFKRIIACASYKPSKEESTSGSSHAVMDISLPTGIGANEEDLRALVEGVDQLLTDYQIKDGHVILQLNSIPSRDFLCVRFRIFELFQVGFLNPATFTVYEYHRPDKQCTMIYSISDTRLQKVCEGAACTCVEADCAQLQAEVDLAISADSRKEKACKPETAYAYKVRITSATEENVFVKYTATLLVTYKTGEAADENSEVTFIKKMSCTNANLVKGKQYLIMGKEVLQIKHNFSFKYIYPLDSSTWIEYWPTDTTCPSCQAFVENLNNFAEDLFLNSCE
Experimental: as §1

[3] = target: T3, rabbit C5 (rabbit, UniProt G1SPF9 19-673; G1SPF9 678-1675); assay: as above
T3 construct: also called recombinant rabbit C5 protein
T3 sequence (beta, as listed by the source limits assumed, chain 1 of 2): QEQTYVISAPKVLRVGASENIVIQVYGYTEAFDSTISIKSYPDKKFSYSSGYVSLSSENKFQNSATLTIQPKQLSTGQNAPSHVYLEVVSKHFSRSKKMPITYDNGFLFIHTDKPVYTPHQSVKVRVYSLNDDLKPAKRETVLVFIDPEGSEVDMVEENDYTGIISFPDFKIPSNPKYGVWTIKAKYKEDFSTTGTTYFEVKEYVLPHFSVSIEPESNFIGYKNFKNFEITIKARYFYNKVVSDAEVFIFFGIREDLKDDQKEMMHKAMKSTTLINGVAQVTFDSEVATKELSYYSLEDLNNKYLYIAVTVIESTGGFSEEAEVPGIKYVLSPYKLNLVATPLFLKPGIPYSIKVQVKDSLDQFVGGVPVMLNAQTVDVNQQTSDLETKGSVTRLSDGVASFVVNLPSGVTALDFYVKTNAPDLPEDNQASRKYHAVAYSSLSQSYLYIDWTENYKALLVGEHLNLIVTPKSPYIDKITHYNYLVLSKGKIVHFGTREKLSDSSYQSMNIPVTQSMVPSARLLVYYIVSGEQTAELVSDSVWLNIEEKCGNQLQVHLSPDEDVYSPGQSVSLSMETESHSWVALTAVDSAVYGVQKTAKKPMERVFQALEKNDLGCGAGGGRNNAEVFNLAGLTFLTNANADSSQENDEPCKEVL
T3 sequence (alpha, as listed by the source limits assumed, chain 2 of 2): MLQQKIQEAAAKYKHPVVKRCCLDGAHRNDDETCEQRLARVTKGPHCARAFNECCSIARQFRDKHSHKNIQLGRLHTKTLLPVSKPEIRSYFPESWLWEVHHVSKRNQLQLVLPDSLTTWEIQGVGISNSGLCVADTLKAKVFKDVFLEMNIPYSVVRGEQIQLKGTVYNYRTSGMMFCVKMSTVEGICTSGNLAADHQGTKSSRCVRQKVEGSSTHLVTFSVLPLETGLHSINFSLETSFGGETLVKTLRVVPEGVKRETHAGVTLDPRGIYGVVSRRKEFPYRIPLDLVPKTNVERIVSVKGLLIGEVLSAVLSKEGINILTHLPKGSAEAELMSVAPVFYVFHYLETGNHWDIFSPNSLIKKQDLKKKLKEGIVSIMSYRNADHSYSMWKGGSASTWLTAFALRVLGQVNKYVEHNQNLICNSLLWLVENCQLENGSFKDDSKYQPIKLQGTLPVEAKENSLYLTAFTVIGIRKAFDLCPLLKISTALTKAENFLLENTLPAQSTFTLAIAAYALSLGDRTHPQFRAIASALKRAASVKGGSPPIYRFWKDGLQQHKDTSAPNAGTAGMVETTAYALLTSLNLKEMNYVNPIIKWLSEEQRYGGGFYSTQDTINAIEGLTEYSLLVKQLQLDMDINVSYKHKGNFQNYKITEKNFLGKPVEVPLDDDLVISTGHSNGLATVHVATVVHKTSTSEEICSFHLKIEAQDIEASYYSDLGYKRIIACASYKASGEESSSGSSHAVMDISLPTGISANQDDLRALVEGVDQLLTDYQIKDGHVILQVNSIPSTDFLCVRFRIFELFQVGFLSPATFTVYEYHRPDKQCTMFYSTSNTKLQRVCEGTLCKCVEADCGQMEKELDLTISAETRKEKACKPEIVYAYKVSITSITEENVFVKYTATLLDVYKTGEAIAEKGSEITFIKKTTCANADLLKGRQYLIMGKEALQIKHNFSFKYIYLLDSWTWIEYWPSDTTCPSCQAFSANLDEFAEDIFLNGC
Experimental: as §1

[4] = target: T4, rat C5 (rat, UniProt P08650 19-1681, limits assumed); assay: as above
T4 construct: also called recombinant rat C5 protein
T4 sequence (P08650 19-1681 limits assumed): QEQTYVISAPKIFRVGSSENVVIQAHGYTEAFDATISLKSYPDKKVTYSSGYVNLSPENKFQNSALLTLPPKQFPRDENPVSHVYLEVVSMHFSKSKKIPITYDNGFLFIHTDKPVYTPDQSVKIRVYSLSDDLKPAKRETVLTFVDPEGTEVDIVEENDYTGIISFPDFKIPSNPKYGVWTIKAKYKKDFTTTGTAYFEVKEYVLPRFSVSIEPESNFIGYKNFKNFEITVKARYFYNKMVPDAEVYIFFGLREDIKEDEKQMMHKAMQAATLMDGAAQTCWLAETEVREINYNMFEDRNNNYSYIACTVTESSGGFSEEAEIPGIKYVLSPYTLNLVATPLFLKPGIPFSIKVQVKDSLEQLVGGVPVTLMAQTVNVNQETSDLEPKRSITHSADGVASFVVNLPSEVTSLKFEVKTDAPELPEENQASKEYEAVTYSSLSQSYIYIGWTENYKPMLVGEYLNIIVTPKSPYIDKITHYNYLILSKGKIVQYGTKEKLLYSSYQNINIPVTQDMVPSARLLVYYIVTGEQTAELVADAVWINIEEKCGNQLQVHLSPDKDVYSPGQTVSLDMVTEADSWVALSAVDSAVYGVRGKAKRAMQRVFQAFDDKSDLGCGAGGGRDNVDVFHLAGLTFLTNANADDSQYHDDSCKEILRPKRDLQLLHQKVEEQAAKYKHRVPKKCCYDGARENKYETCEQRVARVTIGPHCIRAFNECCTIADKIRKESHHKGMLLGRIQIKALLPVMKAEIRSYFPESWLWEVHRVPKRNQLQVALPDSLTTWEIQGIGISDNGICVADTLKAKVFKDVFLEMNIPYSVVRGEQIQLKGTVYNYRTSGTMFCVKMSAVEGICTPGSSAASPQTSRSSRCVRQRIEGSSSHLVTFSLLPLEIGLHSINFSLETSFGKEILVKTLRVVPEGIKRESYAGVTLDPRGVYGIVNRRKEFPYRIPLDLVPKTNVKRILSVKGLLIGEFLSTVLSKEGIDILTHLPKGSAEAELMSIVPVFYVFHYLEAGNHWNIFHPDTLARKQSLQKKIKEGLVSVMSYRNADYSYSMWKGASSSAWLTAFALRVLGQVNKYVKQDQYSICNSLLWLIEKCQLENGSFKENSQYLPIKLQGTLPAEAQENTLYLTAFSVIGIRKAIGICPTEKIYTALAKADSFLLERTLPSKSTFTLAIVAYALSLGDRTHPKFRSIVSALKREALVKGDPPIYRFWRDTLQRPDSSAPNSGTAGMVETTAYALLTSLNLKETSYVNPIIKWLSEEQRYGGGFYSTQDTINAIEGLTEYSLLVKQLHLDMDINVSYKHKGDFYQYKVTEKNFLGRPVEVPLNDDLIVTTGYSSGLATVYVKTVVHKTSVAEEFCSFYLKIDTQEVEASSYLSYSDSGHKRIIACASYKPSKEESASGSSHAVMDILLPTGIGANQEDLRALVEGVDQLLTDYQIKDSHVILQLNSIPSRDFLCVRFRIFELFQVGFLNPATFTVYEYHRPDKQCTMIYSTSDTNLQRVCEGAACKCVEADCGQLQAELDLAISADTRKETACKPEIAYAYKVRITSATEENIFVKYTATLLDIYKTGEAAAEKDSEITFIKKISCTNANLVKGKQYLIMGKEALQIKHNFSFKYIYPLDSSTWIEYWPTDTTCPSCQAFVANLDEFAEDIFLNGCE
Experimental: as §1

B1: Y32H/Q38R/L54H anti-C5 mAb (antibody, human IgG4 S228P, V domains shown)
VH: QVQLVQSGAEVKKPGASVKVSCKASGYIFSNHWIQWVRQAPGQGLEWMGEILPGSGSTEYTENFKDRVTMTRDTSTSTVYMELSSLRSEDTAVYYCARYFFGSSPNWYFDVWGQGTLVTVSS
VL: DIQMTQSPSSLSASVGDRVTITCGASENIYGALNWYQRKPGKAPKLLIYGATNHADGVPSRFSGSGSGTDFTLTISSLQPEDFATYYCQNVLNTPLTFGQGTKVEIK
EC50 [1]: ~0.2 µg/mL | binding result [2]: no binding | binding result [3]: no binding | binding result [4]: no binding
